Data on seven proteins can be found in paper PMC3792123, “Role of Cysteines in the Stability and DNA-Binding Activity of the Hypochlorite-Specific Transcription Factor HypT” (PLoS ONE, 2013).

By stoichiometry N is commonly meant the number of molecules, sites or subunits per partner or assembly.

Data set [1] concerns the molecule itself. In words: AUC; sedimentation velocity, 4 to 10 µM protein, absorbance at 280 nm, 10 mM NaH2PO4, 400 mM NaCl, 5% glycerin, pH 7.5; c(S) method (SedFit).
Data set [2] concerns the molecule itself. In words: cross-linking; disulfide formed on oxidation: purified, reduced protein treated with HOCl (25 µM), NH2Cl (25 µM) or H2O2 (1 mM), then non-reducing SDS-PAGE; disulfide-linked dimer at ca. 64 kDa, mostly reduced again by 1 mM TCEP.

B1: HypT (wild-type, purified) (natural protein, E. coli, UniProt P39376 1-303, looked up)
chain: MDDCGAILHNIETKWLYDFLTLEKCRNFSQAAVSRNVSQPAFSRRIRALEQAIGVELFNRQVTPLQLSEQGKIFHSQIRHLLQQLESNLAELRGGSDYAQRKIKIAAAHSLSLGLLPSIISQMPPLFTWAIEAIDVDEAVDKLREGQSDCIFSFHDEDLLEAPFDHIRLFESQLFPVCASDEHGEALFNLAQPHFPLLNYSRNSYMGRLINRTLTRHSELSFSTFFVSSMSELLKQVALDGCGIAWLPEYAIQQEIRSGKLVVLNRDELVIPIQAYAYRMNTRMNPVAERFWRELRELEIVLS
notes: HypT (YjiE), HOCl-specific LysR-type transcription factor of E. coli; Oxidation (HOCl, NH2Cl, H2O2) gives a Cys4-Cys4 disulfide between two chains; also called YjiE; wild-type HypT; source: E. coli BL21 (DE3) gold, pET11a, purified (HisTrap, PD10 desalting); copies: 12
As to B1, the “stoichiometry N” value in data set [1] is 12.

B2: HypT^5C→S (natural protein, E. coli, UniProt P39376 1-303, looked up)
chain: MDDSGAILHNIETKWLYDFLTLEKSRNFSQAAVSRNVSQPAFSRRIRALEQAIGVELFNRQVTPLQLSEQGKIFHSQIRHLLQQLESNLAELRGGSDYAQRKIKIAAAHSLSLGLLPSIISQMPPLFTWAIEAIDVDEAVDKLREGQSDSIFSFHDEDLLEAPFDHIRLFESQLFPVSASDEHGEALFNLAQPHFPLLNYSRNSYMGRLINRTLTRHSELSFSTFFVSSMSELLKQVALDGSGIAWLPEYAIQQEIRSGKLVVLNRDELVIPIQAYAYRMNTRMNPVAERFWRELRELEIVLS
notes: also called cysteine-free HypT mutant; source: E. coli BL21 (DE3) gold, pET28a, purified (HisTrap, PD10 desalting)
In the case of B2, the “stoichiometry N” value in data set [1] came to 4.

B3: HypT^C178S (natural protein, E. coli, UniProt P39376 1-303, looked up)
chain: MDDCGAILHNIETKWLYDFLTLEKCRNFSQAAVSRNVSQPAFSRRIRALEQAIGVELFNRQVTPLQLSEQGKIFHSQIRHLLQQLESNLAELRGGSDYAQRKIKIAAAHSLSLGLLPSIISQMPPLFTWAIEAIDVDEAVDKLREGQSDCIFSFHDEDLLEAPFDHIRLFESQLFPVSASDEHGEALFNLAQPHFPLLNYSRNSYMGRLINRTLTRHSELSFSTFFVSSMSELLKQVALDGCGIAWLPEYAIQQEIRSGKLVVLNRDELVIPIQAYAYRMNTRMNPVAERFWRELRELEIVLS
notes: HypT (YjiE) of E. coli, single mutant C178S; source: E. coli BL21 (DE3) gold, pET11a, purified (HisTrap, PD10 desalting)
On to B3, for which, in data set [2], the binding result is “binds”.

B4: HypT^C25S (natural protein, E. coli, UniProt P39376 1-303, looked up)
chain: MDDCGAILHNIETKWLYDFLTLEKSRNFSQAAVSRNVSQPAFSRRIRALEQAIGVELFNRQVTPLQLSEQGKIFHSQIRHLLQQLESNLAELRGGSDYAQRKIKIAAAHSLSLGLLPSIISQMPPLFTWAIEAIDVDEAVDKLREGQSDCIFSFHDEDLLEAPFDHIRLFESQLFPVCASDEHGEALFNLAQPHFPLLNYSRNSYMGRLINRTLTRHSELSFSTFFVSSMSELLKQVALDGCGIAWLPEYAIQQEIRSGKLVVLNRDELVIPIQAYAYRMNTRMNPVAERFWRELRELEIVLS
notes: HypT (YjiE) of E. coli, single mutant C25S; source: E. coli BL21 (DE3) gold, pET28a, purified (HisTrap, PD10 desalting)
In the case of B4, the binding result in data set [2] was “binds”.

B5: HypT^C242S (natural protein, E. coli, UniProt P39376 1-303, looked up)
chain: MDDCGAILHNIETKWLYDFLTLEKCRNFSQAAVSRNVSQPAFSRRIRALEQAIGVELFNRQVTPLQLSEQGKIFHSQIRHLLQQLESNLAELRGGSDYAQRKIKIAAAHSLSLGLLPSIISQMPPLFTWAIEAIDVDEAVDKLREGQSDCIFSFHDEDLLEAPFDHIRLFESQLFPVCASDEHGEALFNLAQPHFPLLNYSRNSYMGRLINRTLTRHSELSFSTFFVSSMSELLKQVALDGSGIAWLPEYAIQQEIRSGKLVVLNRDELVIPIQAYAYRMNTRMNPVAERFWRELRELEIVLS
notes: HypT (YjiE) of E. coli, single mutant C242S; source: E. coli BL21 (DE3) gold, pET11a, purified (HisTrap, PD10 desalting)
Regarding B5, the binding result in data set [2] is recorded as “binds”.

B6: HypT^quadrupleC150 (natural protein, E. coli, UniProt P39376 1-303, looked up)
chain: MDDSGAILHNIETKWLYDFLTLEKSRNFSQAAVSRNVSQPAFSRRIRALEQAIGVELFNRQVTPLQLSEQGKIFHSQIRHLLQQLESNLAELRGGSDYAQRKIKIAAAHSLSLGLLPSIISQMPPLFTWAIEAIDVDEAVDKLREGQSDCIFSFHDEDLLEAPFDHIRLFESQLFPVSASDEHGEALFNLAQPHFPLLNYSRNSYMGRLINRTLTRHSELSFSTFFVSSMSELLKQVALDGSGIAWLPEYAIQQEIRSGKLVVLNRDELVIPIQAYAYRMNTRMNPVAERFWRELRELEIVLS
notes: HypT (YjiE) of E. coli, quadruple mutant: four cysteines replaced by serine, Cys150 left intact; source: E. coli BL21 (DE3) gold, pET28a, purified (HisTrap, PD10 desalting)
As to B6, the binding result in data set [1] is listed as “binds”.

B7: HypT^C150S (natural protein, E. coli, UniProt P39376 1-303, looked up)
chain: MDDCGAILHNIETKWLYDFLTLEKCRNFSQAAVSRNVSQPAFSRRIRALEQAIGVELFNRQVTPLQLSEQGKIFHSQIRHLLQQLESNLAELRGGSDYAQRKIKIAAAHSLSLGLLPSIISQMPPLFTWAIEAIDVDEAVDKLREGQSDSIFSFHDEDLLEAPFDHIRLFESQLFPVCASDEHGEALFNLAQPHFPLLNYSRNSYMGRLINRTLTRHSELSFSTFFVSSMSELLKQVALDGCGIAWLPEYAIQQEIRSGKLVVLNRDELVIPIQAYAYRMNTRMNPVAERFWRELRELEIVLS
notes: HypT (YjiE) of E. coli, single mutant C150S; source: E. coli BL21 (DE3) gold, pET11a, purified (HisTrap, PD10 desalting)
B7: in data set [2], the binding result is “binds”.
